In publication PMC11931385, “Structural and functional analysis of cancer-associated missense variants in the retinoblastoma protein pocket domain” (The Journal of Biological Chemistry, 2025):
No end group written: not given here. TMR = tetramethyl rhodamine dye

T1: retinoblastoma protein pocket domain (Rb^P), wild type (human, UniProt P06400 380-788)
T1 construct: also called WT Rb^P; WT
T1 sequence (looked up): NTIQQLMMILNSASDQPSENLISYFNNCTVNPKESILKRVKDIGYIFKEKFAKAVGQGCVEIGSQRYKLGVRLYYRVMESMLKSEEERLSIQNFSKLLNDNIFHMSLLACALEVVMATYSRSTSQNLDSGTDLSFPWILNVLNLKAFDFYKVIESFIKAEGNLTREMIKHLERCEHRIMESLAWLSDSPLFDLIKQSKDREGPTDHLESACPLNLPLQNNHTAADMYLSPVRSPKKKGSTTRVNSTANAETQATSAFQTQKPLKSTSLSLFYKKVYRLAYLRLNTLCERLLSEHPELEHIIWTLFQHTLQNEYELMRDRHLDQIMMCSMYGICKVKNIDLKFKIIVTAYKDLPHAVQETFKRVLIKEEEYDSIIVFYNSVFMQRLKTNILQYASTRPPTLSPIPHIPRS

T2: Rb^P K530I (human, UniProt P06400 380-788, K530I)
T2 construct: also called variant 21
T2 sequence (looked up): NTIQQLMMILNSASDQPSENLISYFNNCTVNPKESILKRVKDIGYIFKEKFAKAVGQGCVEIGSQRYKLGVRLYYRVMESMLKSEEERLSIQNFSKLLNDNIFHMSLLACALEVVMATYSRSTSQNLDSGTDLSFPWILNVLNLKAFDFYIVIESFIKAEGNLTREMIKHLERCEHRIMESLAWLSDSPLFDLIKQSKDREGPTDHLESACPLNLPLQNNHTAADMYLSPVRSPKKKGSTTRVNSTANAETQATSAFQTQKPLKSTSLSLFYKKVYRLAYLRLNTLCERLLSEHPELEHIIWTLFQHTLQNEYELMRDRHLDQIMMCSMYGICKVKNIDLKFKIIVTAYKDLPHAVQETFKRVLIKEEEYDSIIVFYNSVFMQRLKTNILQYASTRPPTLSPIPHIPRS

T3: Rb^P E533K (human, UniProt P06400 380-788, E533K)
T3 construct: also called variant 22
T3 sequence (looked up): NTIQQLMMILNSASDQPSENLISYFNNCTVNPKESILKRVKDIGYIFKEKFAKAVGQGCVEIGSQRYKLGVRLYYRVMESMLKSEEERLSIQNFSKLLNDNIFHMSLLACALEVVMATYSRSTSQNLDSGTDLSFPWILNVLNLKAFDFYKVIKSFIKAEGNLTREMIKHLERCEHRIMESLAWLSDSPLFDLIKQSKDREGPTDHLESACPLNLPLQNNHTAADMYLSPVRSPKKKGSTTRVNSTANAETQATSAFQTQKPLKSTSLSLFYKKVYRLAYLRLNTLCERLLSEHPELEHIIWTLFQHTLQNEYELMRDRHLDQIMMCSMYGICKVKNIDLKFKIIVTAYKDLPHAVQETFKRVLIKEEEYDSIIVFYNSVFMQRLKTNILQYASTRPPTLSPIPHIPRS

T4: Rb^P R621H (human, UniProt P06400 380-788, R621H)
T4 construct: also called variant 42
T4 sequence (looked up): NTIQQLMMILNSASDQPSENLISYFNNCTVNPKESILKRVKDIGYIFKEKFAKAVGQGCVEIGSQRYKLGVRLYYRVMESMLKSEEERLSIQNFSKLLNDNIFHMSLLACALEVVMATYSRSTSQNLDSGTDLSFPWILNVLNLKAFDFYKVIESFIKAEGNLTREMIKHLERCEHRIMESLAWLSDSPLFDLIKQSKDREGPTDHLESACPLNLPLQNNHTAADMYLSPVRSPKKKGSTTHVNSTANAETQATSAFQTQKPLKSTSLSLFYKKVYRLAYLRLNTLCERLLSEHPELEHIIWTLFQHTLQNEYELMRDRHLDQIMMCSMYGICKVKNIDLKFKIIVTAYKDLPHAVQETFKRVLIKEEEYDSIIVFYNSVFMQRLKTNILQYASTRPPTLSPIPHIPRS

T5: Rb^P M695I (human, UniProt P06400 380-788, M695I)
T5 construct: also called variant 61
T5 sequence (looked up): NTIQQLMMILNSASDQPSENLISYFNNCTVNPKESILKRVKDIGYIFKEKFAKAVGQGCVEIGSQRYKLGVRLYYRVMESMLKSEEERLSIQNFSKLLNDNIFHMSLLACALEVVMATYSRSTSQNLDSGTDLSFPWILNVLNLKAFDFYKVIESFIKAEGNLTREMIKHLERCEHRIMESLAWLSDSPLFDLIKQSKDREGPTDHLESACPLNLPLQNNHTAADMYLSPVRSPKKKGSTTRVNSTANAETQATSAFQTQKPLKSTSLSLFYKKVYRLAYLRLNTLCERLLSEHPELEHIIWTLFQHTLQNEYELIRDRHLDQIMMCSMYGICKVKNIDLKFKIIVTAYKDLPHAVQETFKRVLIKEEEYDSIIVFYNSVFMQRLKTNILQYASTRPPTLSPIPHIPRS


What was measured:
Test in all cases: fluorescence polarisation; 25 °C; unlabeled Rb^P titrated against 1.5 nM TMR-E2F1^TD or 7.5 nM TMR-E7^LxCxE; 25 mM Tris pH 8.0, 200 mM NaCl, 1 mM DTT, 0.1% Tween-20; 2 min incubation; quadratic fit; apparent Kd for the variants, Kd for WT
Conditions in all cases: both partners purified
[1] = target: T1, retinoblastoma protein pocket domain …
Rb^P K530I = target: T2, Rb^P K530I
Rb^P E533K = target: T3, Rb^P E533K
Rb^P R621H = target: T4, Rb^P R621H
Rb^P M695I = target: T5, Rb^P M695I

Row | Binder | Kd [1] [nM] | Kd (Rb^P K530I) [nM] | Kd (Rb^P E533K) [nM] | Kd (Rb^P R621H) [nM] | Kd (Rb^P M695I) [nM]
1 | {TMR}-GEGIRDLFDCDFGDLTPLD (also called E2F^TD; source: synthetic peptide, bought: GenScript) [TMR-E2F1^TD, peptide of the E2F1 transactivation domain] | 14 | 945 | 810 | 30 | 43
2 | DLYCYEQLN (also: TMR label, position not given here, source: synthetic peptide, bought: GenScript) [TMR-E7^LxCxE, LxCxE peptide of the E7 oncoprotein from HPV] | 5 | 8 | 6 | 10 | 11
